This note sets out measurements from patent US20210063414A1, “METHODS FOR PREVENTING AND/OR TREATING BONE LOSS CONDITIONS BY MODULATING IRISIN” (Dana-Farber Cancer Institute, Inc., priority 2018, published 2021).

The target in this experiment is T1, MLO-Y4 cell surface proteins (Mus musculus, UniProt O88492).
T1 construct: endogenous in cells; host or cells: MLO-Y4
T1 sequence (O88492 1-1403): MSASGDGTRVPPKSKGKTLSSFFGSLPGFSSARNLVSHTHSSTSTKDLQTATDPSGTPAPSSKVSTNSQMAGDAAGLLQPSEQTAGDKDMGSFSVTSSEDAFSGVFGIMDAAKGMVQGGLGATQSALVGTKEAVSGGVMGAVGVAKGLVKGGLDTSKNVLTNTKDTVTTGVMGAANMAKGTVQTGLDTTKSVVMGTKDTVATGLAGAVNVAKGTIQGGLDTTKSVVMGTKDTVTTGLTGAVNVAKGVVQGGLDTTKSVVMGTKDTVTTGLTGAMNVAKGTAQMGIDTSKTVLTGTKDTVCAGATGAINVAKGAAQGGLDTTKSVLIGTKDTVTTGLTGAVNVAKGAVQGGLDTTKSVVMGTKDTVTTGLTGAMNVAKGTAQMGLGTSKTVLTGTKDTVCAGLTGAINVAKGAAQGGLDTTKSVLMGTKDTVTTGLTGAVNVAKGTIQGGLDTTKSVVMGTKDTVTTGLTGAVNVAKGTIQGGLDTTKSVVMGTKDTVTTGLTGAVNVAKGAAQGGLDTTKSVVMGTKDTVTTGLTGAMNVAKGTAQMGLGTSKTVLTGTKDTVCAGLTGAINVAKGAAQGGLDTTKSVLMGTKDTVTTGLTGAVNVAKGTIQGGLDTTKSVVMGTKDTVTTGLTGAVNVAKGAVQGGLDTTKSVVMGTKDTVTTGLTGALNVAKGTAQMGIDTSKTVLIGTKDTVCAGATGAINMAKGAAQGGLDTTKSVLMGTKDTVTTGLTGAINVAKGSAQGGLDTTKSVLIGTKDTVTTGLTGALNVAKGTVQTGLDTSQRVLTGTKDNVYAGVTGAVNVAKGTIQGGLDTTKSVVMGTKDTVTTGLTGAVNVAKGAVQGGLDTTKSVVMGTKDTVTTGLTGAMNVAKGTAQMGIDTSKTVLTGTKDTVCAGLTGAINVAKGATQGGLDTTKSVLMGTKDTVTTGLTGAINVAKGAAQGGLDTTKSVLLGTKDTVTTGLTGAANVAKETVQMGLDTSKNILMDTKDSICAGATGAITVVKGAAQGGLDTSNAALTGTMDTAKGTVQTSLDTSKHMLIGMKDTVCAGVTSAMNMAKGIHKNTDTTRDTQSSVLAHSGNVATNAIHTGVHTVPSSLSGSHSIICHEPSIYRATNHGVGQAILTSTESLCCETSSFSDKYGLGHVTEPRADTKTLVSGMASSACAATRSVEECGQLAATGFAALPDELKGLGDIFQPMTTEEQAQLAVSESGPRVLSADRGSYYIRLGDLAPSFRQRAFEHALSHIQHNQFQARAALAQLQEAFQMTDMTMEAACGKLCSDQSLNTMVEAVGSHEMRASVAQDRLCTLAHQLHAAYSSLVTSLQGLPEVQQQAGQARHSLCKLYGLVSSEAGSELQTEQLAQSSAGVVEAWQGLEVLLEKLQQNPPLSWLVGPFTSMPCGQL
Nature of the experiment: Crosslinking/co-immunoprecipitation/mass spectrometry (TMT quantitative proteomics) to identify irisin receptors. The note with it: co-precipitated protein Plin4 (PLIN4_MOUSE). It is filed as binding. The procedure, abridged:
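Relative protein abundance came from 6-plex TMT MS3 quantitation on an Orbitrap Fusion Lumos, after in-gel trypsin digestion of Coomassie-stained SDS-PAGE lanes. Input was a Ni-NTA pulldown (250 mM imidazole elution) of lysates from murine MLO-Y4 cells. These cells were treated on ice with His-tagged irisin or adipsin (10 nM, 20 min) in serum-free medium, then crosslinked with 1.5 mM DTSSP for 30 min.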

B1: irisin: secreted cleaved form of FNDC5; recombinant human/mouse irisin with C-terminal his tag produced in HEK293 cells (protein)
chain: DSPSAPVNVTVRHLKANSAVVSWDVLEDEVVIGFAISQQKKDVRMLRFIQEVNTTTRSCALWDLEEDTEYIVHVQAISIQGQSPASEPVLFKTPREAEKMASKNKDEVTMKE
modifications: left off: small tags and cut ends
notes: secreted cleaved form of FNDC5; recombinant human/mouse irisin with C-terminal his tag produced in HEK293 cells
For B1, the TMT signal-to-noise ratio is recorded as 18.9196 and the “irisin/adipsin TMT signal-to-noise ratio” value worked out at 0.169.
